Laboratory results taken from patent US20250127783.

Target: HA-Cdh1 (UniProt Q9UM11)
Sequence (Q9UM11 whole entry): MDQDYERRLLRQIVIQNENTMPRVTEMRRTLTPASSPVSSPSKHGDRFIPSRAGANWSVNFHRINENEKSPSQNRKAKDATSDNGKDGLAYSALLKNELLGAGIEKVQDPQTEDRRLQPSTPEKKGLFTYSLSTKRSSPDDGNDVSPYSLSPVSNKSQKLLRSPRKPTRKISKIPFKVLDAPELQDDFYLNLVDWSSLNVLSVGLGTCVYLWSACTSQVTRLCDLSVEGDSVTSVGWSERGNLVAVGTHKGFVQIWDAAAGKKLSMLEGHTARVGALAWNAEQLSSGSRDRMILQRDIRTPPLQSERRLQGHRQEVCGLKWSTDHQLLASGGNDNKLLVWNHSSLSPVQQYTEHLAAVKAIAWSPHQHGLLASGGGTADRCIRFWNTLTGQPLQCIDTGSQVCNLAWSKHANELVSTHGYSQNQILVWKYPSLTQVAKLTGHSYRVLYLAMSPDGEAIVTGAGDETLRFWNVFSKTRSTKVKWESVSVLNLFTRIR

recombinant human cyclin D1+CDK4 proteins (Abcam ab55695)
in vitro kinase assay (thiophosphate ester immunoblot): CDK4 specifically phosphorylates Cdh1 at S163
